Measurements as given in patent US6777176.

Assays:
[1] = test system: peptides from the phage display library which became phosphorylated by Enzyme I
[2] = target: enzyme I (phosphoenolpyruvate-protein-phosphatase, EC 2.7.3.9) of the bacterial phosphotransferase system (E. coli) (UniProt P08839); test: cell-based or functional assay

Row | Substance | phosphorylation of phage displayed peptides by enzyme I with [32P]phosphoenolpyruvate, fold over the average [1] | rate of phosphorylation by enzyme I (pyruvate formation coupled to lactate dehydrogenase) [1] | uncoupling P1/peptide/h [2]
1 | enzyme I (phosphoenolpyruvate-protein-phosphatase, EC 2.7.3.9) of the bacterial phosphotransferase system | phosphorylated 25 to 30 fold over the average | The inhibitory peptides are phosphorylated by enzyme I at a much slower rate than Hpr. | 
2 | HPr protein (from UniProt P0AA04 1-85) |  |  | 2.7 P1/peptide/h
